The values below come from patent US20230331781A1, “PAR4 DERIVED PEPTIDES, ANALOGS AND USES THEREOF” (Yissum Research Development Company of the Hebrew …, priority 2019, published 2023).

One assay has as its system MDA-MB-231 cells. In words: PAR4 induced Matrigel invasion of MDA-MB-231 cells. Format: cell-based, human. Conditions: AYPGKF activated MDA-MB-231 cells, FIGS. 3B and 3C.
The next assay deals with T1, PAR4-Akt association (Homo sapiens, UniProt P31749).
T1 construct: FLAG; expressed in transfected cells
T1 sequence (P31749 whole entry): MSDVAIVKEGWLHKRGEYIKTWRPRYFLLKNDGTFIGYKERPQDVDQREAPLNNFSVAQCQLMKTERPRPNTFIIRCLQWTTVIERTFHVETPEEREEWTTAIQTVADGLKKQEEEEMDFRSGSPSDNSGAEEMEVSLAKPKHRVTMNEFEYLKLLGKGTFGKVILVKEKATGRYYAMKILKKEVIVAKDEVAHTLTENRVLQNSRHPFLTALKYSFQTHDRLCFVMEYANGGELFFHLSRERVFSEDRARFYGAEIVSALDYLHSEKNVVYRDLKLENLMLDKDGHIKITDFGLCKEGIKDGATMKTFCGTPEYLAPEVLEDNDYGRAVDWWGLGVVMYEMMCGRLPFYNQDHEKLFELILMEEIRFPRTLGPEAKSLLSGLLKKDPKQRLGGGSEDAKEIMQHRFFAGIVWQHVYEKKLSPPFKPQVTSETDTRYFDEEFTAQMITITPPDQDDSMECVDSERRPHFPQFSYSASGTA
Nature of the assay: PAR4-Akt association, immunoprecipitation in HEK293 cells transfected with flg-Par4 and AYPGKF activated. It counts as cell-based. The following applies: HEK 293T cells, wt flg-Par4, AYPGKF activation, FIG. 3D. The protocol:
(§1) Experiments shown in FIG. 3A-3C were carried out in MDA-MB-231 cells. […] Unpaired Student's t test was used. This experiment is a representative of three independent experiments performed in triplicates. […] HEK 293T cells were transfected with wt flg-Par4 followed by AYPGKF activation of PAR4. IP was performed using anti fig abs of cells treated or not with CTP4-A peptide and immunoblotting with anti-Akt abs.
FIG. 4A—PH-Akt module alone binds PAR4-C-tail but not mutant R25C. HEK 293 cells were transiently transfected with flg-Par4 construct and either with GFP-PH-Akt domain alone or GFP-R25C. IP of cell lysates following PAR4 AYPGKF activation was carried out using anti-flg abs. Detection of either Akt-PH domain alone associated with PAR4 was performed with anti-GFP. […] FIG. 4C—The PI3K inhibitor […] inhibits the binding of Akt to PAR4. Treatment of HEK 293 cells with LY294002 for various time points or not, following transient transfection with flg-Par4 and AYPGKF activation was performed. Cell lysates were immunoprecipitated with anti-flg antibodies, and anti-Akt was used to assess the association of Akt with the PAR4 C-tail. […] Amino acid residues of PAR4- and PAR2-PH binding motifs. FIG. 4E—mutations inserted into flg-Par4 generated flg-Par4MutE346A. HEK293 cells were transiently transfected with either wt flg-Par4 or flg-Par4MutE346A. IP of cell lysates following PAR4 activation was carried out using anti-flg abs. Detection of PAR4-Akt association was performed by anti Akt Abs. While association with wt Par4 is seen after 5 and 10 min AYPGKF PAR4 activation, when using flg-Par4 E346A no inhibition is seen and effective association with Akt is seen at 30 min activation. FIG. 4F—utations inserted into flg-Par4 generated flg-Par4Mut F347A and flg-Par4Mut D349A. HEK293 cells were transiently transfected with either wt flg-Par4 or flg-Par4Mut F347A or flg-Par4Mut D349A. IP of cell lysates following PAR4 activation was carried out using anti-f/g abs. Detection of PAR4-Akt association was performed by anti Akt Abs. While association with wt Par4 is seen after 5 min AYPGKF PAR4 activation, no such binding is obtained when using either flg-Par4 F347A or flg-Par4D349A.
HEK293 cells were transiently transfected with flg-Par4 followed by AYPGKF PAR4 activation in the presence and absence of PAR4c (4-4) within the range of 50 nM-150 μM. IP of cell lysates following different periods of activation was carried out using anti flg abs. Detection of Akt was performed by anti Akt abs. β-actin serves as a control gene for loading. […] Matrigel invasion before and after AYPGKF PAR4 activation and in the presence and absence of PAR4 c(4-4) inhibitor in the activated PAR4 cells. […] FIG. 8C—Histograms represent quantification of the cells/HPF invaded the Matrigel layer. […]

The target in a further assay is T2, PAR4 and Akt (Homo sapiens, UniProt P31749).
T2 construct: endogenous in cells; host or cells: MDA-MB-231
T2 sequence (P31749 whole entry): as above
Nature of the assay: Inhibition of binding of PAR4 to Akt by PAR4 C-tail peptides (FIG. 3A). It counts as cell-based. The following applies: MDA-MB-231 cells. The protocol:
as §1
We evaluated the ability of these peptides to inhibit the binding of PAR4 to Akt protein. […] The PH-domain of Akt/PKB associates with PAR4. To elucidate whether Akt/PKB binds via its PH-domain, constructs of either wt Akt/PKB PH-domain were applied alone or an Akt/PKB-PH domain mutant R25C, impaired in its lipid binding capability of the Akt/PKB-PH domain. Transient transfections of flg-hPar4 and either wt GFP-PH-domain or PH-domain R25C mutant were carried out in HEK293 cells. Cells were activated by the PAR4 AYPGKF ligand for the indicated periods of time and the lysates were further processed for IP analysis. Distinct binding of GFP-Akt/PKB-PH domain module alone with the PAR4 C-tail was obtained (FIG. 4A). […] The mutant constructs (e.g., wt: YVSAEFRDKVRA; mutant F347L: YVSAELRDKVRA=PAR4MutF; mutant D349A: YVSAEFRAKVRA=PAR4MutD) were further evaluated for association with Akt/PKB. […]

Assay [1] addresses T3, Akt/PKB (protein kinase B) (UniProt P31749 1-480, limits assumed).
T3 construct: Endogenous Akt of human cell lines
Nature of the assay: co-IP: anti-flg IP from HEK293 cells transfected with the mutant, anti-Akt blot (FIG. 4F). The protocol:
FIG. 4A—PH-Akt module alone binds PAR₄-C-tail but not mutant R25C. HEK 293 cells were transiently transfected with flg-Par4 construct and either with GFP-PH-Akt domain alone or GFP-R25C. IP of cell lysates following PAR₄ AYPGKF activation was carried out using anti-flg abs. Detection of either Akt-PH domain alone associated with PAR₄ was performed with anti-GFP. […] FIG. 4C—The PI3K inhibitor […] inhibits the binding of Akt to PAR₄. Treatment of HEK 293 cells with LY294002 for various time points or not, following transient transfection with flg-Par4 and AYPGKF activation was performed. Cell lysates were immunoprecipitated with anti-flg antibodies, and anti-Akt was used to assess the association of Akt with the PAR₄ C-tail. […] Amino acid residues of PAR₄- and PAR₂-PH binding motifs. FIG. 4E—mutations inserted into flg-Par4 generated flg-Par4MutE346A. HEK293 cells were transiently transfected with either wt flg-Par4 or flg-Par4MutE346A. IP of cell lysates following PAR₄ activation was carried out using anti-flg abs. Detection of PAR₄-Akt association was performed by anti Akt Abs. While association with wt Par4 is seen after 5 and 10 min AYPGKF PAR₄ activation, when using flg-Par4 E346A no inhibition is seen and effective association with Akt is seen at 30 min activation. FIG. 4F—utations inserted into flg-Par4 generated flg-Par4Mut F347A and flg-Par4Mut D349A. […]

Entries after “also recorded” stand apart in the source; their conditions may differ.

T3 sequence (P31749 whole entry): as above

As for “H-DTVASKASAEGG-OH [CTP4-C, downstream PAR4 C-tail peptide]”, in the assay with MDA-MB-231 cells, the “inhibition of PAR4 induced Matrigel invasion” value was “no effect”.
For the molecule “H-RAGLFQRSPGDT-OH [CTP4-B, downstream PAR4 C-tail peptide]”, the “inhibition of PAR4 induced Matrigel invasion” value in the assay on MDA-MB-231 cells is “no effect”. The “inhibition of PAR4-Akt association (IP)” value with PAR4-Akt association is “not”.
For the molecule H-YVSAEFRDKVRA-OH [Peptide 1], the “inhibition of interaction between PAR4 and Akt” value with PAR4 and Akt is “effectively inhibited”. Moreover, in the assay on MDA-MB-231 cells (listed as CTP4-A), the “inhibition of PAR4 induced Matrigel invasion” value is listed as “significantly inhibit; also recorded: attenuated”. For the same molecule, the “inhibition of PAR4-Akt association (IP)” value in the assay with PAR4-Akt association (listed as CTP4-A) is recorded as “inhibited; also recorded: potently inhibits”.

B1: hPar4 D349A (receptor, human, UniProt Q96RI0 48-385, looked up)
chain: GYPGQVCANDSDTLELPDSSRALLLGWVPTRLVPALYGLVLVVGLPANGLALWVLATQAPRLPSTMLLMNLAAADLLLALALPPRIAYHLRGQRWPFGEAACRLATAALYGHMYGSVLLLAAVSLDRYLALVHPLRARALRGRRLALGLCMAAWLMAAALALPLTLQRQTFRLARSDRVLCHDALPLDAQASHWQPAFTCLALLGCFLPLLAMLLCYGATLHTLAASGRRYGHALRLTAVVLASAVAFFVPSNLLLLLHYSDPSPSAWGNLYGAYVPSLALSTLNSCVDPFIYYYVSAEFRAKVRAGLFQRSPGDTVASKASAEGGSRGMGTHSSLLQ
notes: whole, on cells; also called PAR4MutD; flg-Par4Mut D349A
B1: in assay [1], the binding result is “no binding”.
